The record followed here is patent US11597752B2, “Peptides and combination of peptides and scaffolds thereof for use in immunotherapy against colorectal carcinoma (CRC) and other cancers” (priority 2015, dated 2023).

This assay addresses HLA-A*02:01 (Homo sapiens, UniProt P04439, D140Y/D185E/D98H/E176V/E277Q/G131W/G231S/I119V/I121R/I166T/I218V/L300P/L318F/N151K/N90K/P208A/P217A/Q86G/Q94H/R138H/R169H/T345S). Put plainly: MHC binding assay (UV-ligand exchange, beta2m ELISA, peptide exchange yield). Conditions: binding to HLA-A*02:01, β2m ELISA. From the text: Candidate peptides for T cell based therapies according to the present invention were further tested for their MHC binding capacity (affinity). The individual peptide-MHC complexes were produced by UV-ligand exchange, where a UV-sensitive peptide is cleaved upon UV-irradiation, and exchanged with the peptide of interest as analyzed. Only peptide candidates that can effectively bind and stabilize the peptide-receptive MHC molecules prevent dissociation of the MHC complexes. To determine the yield of the exchange reaction, an ELISA was performed based on the detection of the light chain (β2m) of stabilized MHC complexes. The assay was performed as generally described in Rodenko et al. (Rodenko et al., 2006).
96 well MAXISorp plates (NUNC) were coated over night with 2 ug/ml streptavidin in PBS at room temperature, washed 4× and blocked for 1 h at 37° C. in 2% BSA containing blocking buffer. Refolded HLA-A*02:01/MLA-001 monomers served as standards, covering the range of 15-500 ng/ml. Peptide-MHC monomers of the UV-exchange reaction were diluted 100 fold in blocking buffer. Samples were incubated for 1 h at 37° C., washed four times, incubated with 2 ug/ml HRP conjugated anti-β2m for 1 h at 37° C., washed again and detected with TMB solution that is stopped with […]. Absorption was measured at 450 nm. Candidate peptides that show a high exchange yield (preferably higher than 50%, most preferred higher than 75%) are generally preferred for a generation and production of antibodies or fragments thereof, and/or T cell receptors or fragments thereof, as they show sufficient avidity to the MHC molecules and prevent dissociation of the MHC complexes.
Take “3 (RLIPDTLYSV; listed as Homo sapiens) [compound 3]”: the “Peptide exchange (MHC class I binding score, peptide exchange yield)” value (from here on “Peptide exchange”) was ““++++” (≥75% = ++++)”.

In the case of “4 (RLAELTVDEFL; listed as Homo sapiens) [compound 4]”, the “Peptide exchange” value is listed as ““+++” (≥50 = +++)”.

For the substance “5 (WLFDDGGLTL; listed as Homo sapiens) [compound 5]”, the “Peptide exchange” value is recorded as ““++++” (≥75% = ++++)”.

In the case of “6 (FLAELPGSLSL; listed as Homo sapiens) [compound 6]”, the “Peptide exchange” value was ““+++” (≥50 = +++)”.

For the substance “8 (ALMLQGVDLL; listed as Homo sapiens) [compound 8]”, the “Peptide exchange” value is ““+++” (≥50 = +++)”.

As for “13 (FLLAEDTKV; listed as Homo sapiens) [compound 13]”, the “Peptide exchange” value is listed as ““+++” (≥50 = +++)”.

Regarding “14 (FLDKPEDVLL; listed as Homo sapiens) [compound 14]”, the “Peptide exchange” value is recorded as ““++” (≥20% = ++)”.

Consider “15 (LQLDKEFQL; listed as Homo sapiens) [compound 15]”, for which the “Peptide exchange” value was ““+++” (≥50 = +++)”.

“16 (VLVDQSWVL; listed as Homo sapiens) [compound 16]”: the “Peptide exchange” value is recorded as ““+++” (≥50 = +++)”.

Take “17 (ALAAARVEL; listed as Homo sapiens) [compound 17]”: the “Peptide exchange” value is recorded as ““+++” (≥50 = +++)”.

“19 (RLYTKLLNEA; listed as Homo sapiens) [compound 19]”: the “Peptide exchange” value is recorded as ““+++” (≥50 = +++)”.

Take “20 (YLKDGDVML; listed as Homo sapiens) [compound 20]”: the “Peptide exchange” value is listed as ““+++” (≥50 = +++)”.

Consider “22 (GLIDEVMVL; listed as Homo sapiens) [compound 22]”, for which the “Peptide exchange” value is given as ““+++” (≥50 = +++)”.

Turning to “23 (FLDANGHFV; listed as Homo sapiens) [compound 23]”, the “Peptide exchange” value is reported as ““+++” (≥50 = +++)”.

For the substance “24 (VLDGVLMEL; listed as Homo sapiens) [compound 24]”, the “Peptide exchange” value is reported as ““+++” (≥50 = +++)”.

As to “25 (SLADRLIGV; listed as Homo sapiens) [compound 25]”, the “Peptide exchange” value is ““++++” (≥75% = ++++)”.

Take “26 (GLASKENFSNVSL; listed as Homo sapiens) [compound 26]”: the “Peptide exchange” value is ““++” (≥20% = ++)”.

As to “27 (LLADEDSSYL; listed as Homo sapiens) [compound 27]”, the “Peptide exchange” value is listed as ““++” (≥20% = ++)”.

Take “28 (ALTEIQEFI; listed as Homo sapiens) [compound 28]”: the “Peptide exchange” value is on record as ““++++” (≥75% = ++++)”.

As for “29 (QMLDVAIRV; listed as Homo sapiens) [compound 29]”, the “Peptide exchange” value is reported as ““+++” (≥50 = +++)”.

Take “30 (GLSSAYGGL; listed as Homo sapiens) [compound 30]”: the “Peptide exchange” value is recorded as ““+” (≥10% = +)”.

On to “31 (LLYGKYVSV; listed as Homo sapiens) [compound 31]”, for which the “Peptide exchange” value is listed as ““+++” (≥50 = +++)”.

Regarding “32 (KLNTETFGV; listed as Homo sapiens) [compound 32]”, the “Peptide exchange” value is listed as ““++” (≥20% = ++)”.

In the case of “33 (ALWEKNTHL; listed as Homo sapiens) [compound 33]”, the “Peptide exchange” value is reported as ““+++” (≥50 = +++)”.

In the case of “34 (ILLEKSVSV; listed as Homo sapiens) [compound 34]”, the “Peptide exchange” value is reported as ““+++” (≥50 = +++)”.

As for “35 (KLLDLTVRI; listed as Homo sapiens) [compound 35]”, the “Peptide exchange” value was ““+++” (≥50 = +++)”.
